Assay [1] addresses PKA substrate (modified Kemptide containing a consensus phosphorylation site for Protein Kinase A) C-terminally tagged with the yellow fluorescent protein YPet. The assay can be described thus: cell-based or functional assay.
Assay [2] has as its target PKC substrate C-terminally tagged with the yellow fluorescent protein YPet. The assay can be described thus: cell-based or functional assay.

Turning to “FHA1 (forkhead associated domain 1 of the yeast protein Rad53) tagged at its N-terminus with the cyan fluorescent protein Cerulean (from UniProt P22216 22-162)”, the increase in yellow/cyan emission ratio (intermolecular FRET) after Forskolin in 1205-Lu cells co-expressing both constructs in assay [1] was 60%. In assay [2], the increase in yellow/cyan emission ratio (intermolecular FRET) after PMA in 1205-Lu cells co-expressing both constructs worked out at 30%.

The values are drawn from patent US20100202970A1.
